For orientation: Kd means the concentration at which binding is half-saturated. The low end stands for a tighter complex, the high end for a looser complex.

For data set [1], the target named is DNA polymerase beta D160N (UniProt P06746 1-335, D160N). Nature of the data set: active site titration.
A further data set has as its target DNA polymerase beta WT (UniProt P06746 1-335). Briefly: active site titration.

B1: 1 bp-gap (dsDNA)
DNA 1: CGCGCCAATCGAGCCATGTCGT
DNA 2: GTCAACGACCCACCATTCAAGA
DNA 3: TCTTGAATGGTGGGTCGTTGACGACGACATGGCTCGATTGGCGCG
On to B1, for which the Kd was found to be 21 nM in data set [1] and 16 nM with DNA polymerase beta WT.

Source of the values: publication PMC3624760.
